According to the supplement of paper PMC7877785:
± gives the uncertainty stated by the source.

Assay: self-splicing fitness, log relative to wild type (ln ratio); higher = more splicing; Tetrahymena group I intron in knt gene, E. coli kanamycin selection, DiMSum; sequences stand for … in CUCUCU…GGAGGGAAAAGUUAUCAGGCAUGCACCUGGUAGCUAGUCUUUAAACCAAUAGAUUGCAUCGGUUUAAAAGGCAAGACCGUCAAAUUGCGGGAAAGGGGUCAACAGCCGUUCAGUACCAAGUCUCAGGGGAAACUUUGAGAUGGCCUUGCAAAGGGUAUGGUAAUAAGCUGACGGACAUGGUCCUAACCACGCAGCCAAGUCCUAAGUCAACAGAUCUUCUGUUGAUAUGGAUGCAGUUCACAGACUAAAUGUCGGUCGGGGAAGAUGUAUUCUUCUCAUAAGAUAUAGUCGGACCUCUCCUUAAUGGGAGCUAGCGGAUGAAGUGAUGCAACACUGGAGCCGCUGGGAACUAAUUUGUAUGCGAAAGUAUAUUGAUUAGUUUUGGAGUACUCGUGGUCG
Outline: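 Library with all eight P1ex-region intron nucleotides randomised, intron inside the knt kanamycin-resistance gene on pET-22b(+), in E. coli BL21(DE3). Cells grew overnight at 37°C or 30°C on LB agar with or without 25 μg/mL kanamycin (plus 100 μg/mL carbenicillin, 50 μM IPTG, 0.2% rhamnose), in six replicate transformations. Pooled colonies were amplicon-sequenced on Illumina HiSeq 2500. DiMSum fitness is the error-weighted combination of wild-type-normalised replicate fold changes, kanamycin versus none.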

| Sequence | self-splicing fitness (ln) (30 °C) | self-splicing fitness (ln) (37 °C) |
| --- | --- | --- |
| AGCAAGCAAUAUUACGAAAU | -2.42 ± 0.098 | -1.51 ± 0.12 |
| CUAAAGCAAUAUUACGGUGC | -3.22 ± 0.16 | -3.15 ± 0.25 |
| CCUCAGCAAUAUUACGGAUG | -0.811 ± 0.066 | -0.682 ± 0.087 |
| UACUAGCAAUAUUACGUAGA | -1.84 ± 0.11 | -1.95 ± 0.16 |
| UAACAGCAAUAUUACGACUC | -0.882 ± 0.084 | -0.517 ± 0.11 |
| AGCCAGCAAUAUUACGUUUC | -3.43 ± 0.18 |  |
| GUGUAGCAAUAUUACGGUGU | -2.26 ± 0.16 | -0.0252 ± 0.14 |
| GGUAAGCAAUAUUACGGACA | -0.53 ± 0.13 | -0.0615 ± 0.15 |
| GGCAAGCAAUAUUACGUAAU | 0.0253 ± 0.063 | 0.562 ± 0.074 |
| UCUUAGCAAUAUUACGAGCG | -1.36 ± 0.13 | -0.498 ± 0.15 |
| GAGUAGCAAUAUUACGAUUU | -0.387 ± 0.086 | -0.312 ± 0.1 |
| CGAAAGCAAUAUUACGACAA | -1.13 ± 0.25 | -1.63 ± 0.18 |
| UUACAGCAAUAUUACGGAUG | -2.18 ± 0.1 | -0.325 ± 0.1 |
| ACGAAGCAAUAUUACGUGGG | -2.76 ± 0.16 | -2.84 ± 0.17 |
| CGGUAGCAAUAUUACGUACU | -1.36 ± 0.15 | -0.578 ± 0.16 |
| UUCUAGCAAUAUUACGUCUU | -3.03 ± 0.29 | -2.26 ± 0.23 |
| UGAAAGCAAUAUUACGAGUU | -3.31 ± 0.15 | -0.915 ± 0.095 |
| UUCCAGCAAUAUUACGGAUA | -0.966 ± 0.092 | -0.56 ± 0.098 |
| AGGUAGCAAUAUUACGGCUA | -1.66 ± 0.022 | -1.14 ± 0.037 |
| UAUUAGCAAUAUUACGGGUU | -2.08 ± 0.13 | -1.77 ± 0.2 |
| UUGAAGCAAUAUUACGCGGG | -1.95 ± 0.1 | -0.668 ± 0.12 |

| Sequence | self-splicing fitness (ln) (30 °C) | self-splicing fitness (ln) (37 °C) |
| --- | --- | --- |
| AACCAGCAAUAUUACGAAUU | -0.517 ± 0.064 | -0.314 ± 0.081 |
| GUACAGCAAUAUUACGUUGU | -3.27 ± 0.15 | -1.99 ± 0.15 |
| CCGGAGCAAUAUUACGUUUC | -2.4 ± 0.31 | -2.74 ± 0.48 |
| GAUUAGCAAUAUUACGAUGU | -0.783 ± 0.074 | -0.611 ± 0.1 |
| CCCAAGCAAUAUUACGCAGU | -3.15 ± 0.14 | -2.32 ± 0.18 |
| ACAAAGCAAUAUUACGCUAG | -1.53 ± 0.072 | -1.72 ± 0.086 |
| GUAGAGCAAUAUUACGGGGA | -3.54 ± 0.25 | -1.16 ± 0.29 |
| AUUGAGCAAUAUUACGGGUC | -3.34 ± 0.39 |  |
| CAAUAGCAAUAUUACGCUAG | -2.49 ± 0.15 | -1.86 ± 0.19 |
| GGCAAGCAAUAUUACGGUGU | -1.2 ± 0.059 | -0.54 ± 0.09 |
| CAAUAGCAAUAUUACGUGAU | -3.98 ± 0.14 | -2.5 ± 0.12 |
| UGUUAGCAAUAUUACGGUGG | -1.95 ± 0.16 | -0.147 ± 0.16 |
| AACAAGCAAUAUUACGCCUG | -0.373 ± 0.094 | -0.0232 ± 0.095 |
| CUACAGCAAUAUUACGGCGU | -3.49 ± 0.13 | -2.94 ± 0.19 |
| GAAAAGCAAUAUUACGGUUU | -0.79 ± 0.057 | -0.332 ± 0.076 |
| AAAUAGCAAUAUUACGUUUA | -1.85 ± 0.15 | -1.03 ± 0.13 |
| GUUAAGCAAUAUUACGAGGC | -3.2 ± 0.28 | -1.34 ± 0.3 |
| AAACAGCAAUAUUACGUGCA | -1.19 ± 0.068 | -0.303 ± 0.074 |
| GGAGAGCAAUAUUACGGACG |  | -1.27 ± 0.31 |
| UCUAAGCAAUAUUACGGAUU |  | -2.31 ± 0.23 |
| CUUGAGCAAUAUUACGUCUA | -2.76 ± 0.46 |  |

| Sequence | self-splicing fitness (ln) (30 °C) | self-splicing fitness (ln) (37 °C) |
| --- | --- | --- |
| CAGCAGCAAUAUUACGAGGU | -2.8 ± 0.16 | -2.42 ± 0.21 |
| UAGUAGCAAUAUUACGUCGU | -3.76 ± 0.38 | -2.81 ± 0.21 |
| AUAAAGCAAUAUUACGUUUA | -0.935 ± 0.065 | -0.201 ± 0.08 |
| UUUGAGCAAUAUUACGUUUG | -3.29 ± 0.26 | -2 ± 0.31 |
| GCGCAGCAAUAUUACGAACG | -1.37 ± 0.11 | -0.329 ± 0.17 |
| ACAGAGCAAUAUUACGUACG | -3.9 ± 0.23 | -2.3 ± 0.2 |
| AAGGAGCAAUAUUACGAUCG | -1.99 ± 0.19 | -1.8 ± 0.27 |
| GACUAGCAAUAUUACGCAAC | -0.979 ± 0.15 | -1.54 ± 0.19 |
| ACUAAGCAAUAUUACGUAUA | -1.9 ± 0.13 | -0.679 ± 0.12 |
| CUAGAGCAAUAUUACGCGUU | -4.14 ± 0.24 | -2.46 ± 0.27 |
| AUGCAGCAAUAUUACGUACC | -0.541 ± 0.084 | 0.409 ± 0.1 |
| CGAUAGCAAUAUUACGGUCU | -0.529 ± 0.072 | 0.511 ± 0.097 |
| GUUAAGCAAUAUUACGGUCU | -2.3 ± 0.14 | -0.0437 ± 0.12 |
| GGUGAGCAAUAUUACGUGCA | -0.986 ± 0.12 | -0.496 ± 0.14 |
| CAGAAGCAAUAUUACGAUCG | -0.236 ± 0.078 | 0.167 ± 0.1 |
| CGACAGCAAUAUUACGCAAA | -3.94 ± 0.31 | -3.08 ± 0.22 |
| CGAUAGCAAUAUUACGGGAU | -4.23 ± 0.31 | -2.86 ± 0.27 |
| GCUAAGCAAUAUUACGCUGU |  | -3.18 ± 0.47 |
| UAGUAGCAAUAUUACGGGCG | -0.694 ± 0.14 | -0.395 ± 0.12 |
| GCACAGCAAUAUUACGACUC | -0.289 ± 0.067 | 0.76 ± 0.083 |
